# Read-outs that look alike come from different tables or passages of the source. Where a SMILES comes first, the peptide text is derived from it. Bridges are numbered along the chain shown (N, C = ends). Where no end group is shown, it is not given here. The star is where a group is joined. DOTA = O=C(O)CN1CCN(CC(=O)O)CCN(CC(=O)*)CCN(CC(=O)O)CC1
# Legend:
# [1] = test system: integrin receptors expressed on U87MG glioblastoma cells; experiment: Competition binding with 125I-echistatin to U87MG cells; design: species or system human; details: competition with 0.06 nM 125I-echistatin, 2×10^5 U87MG cells, IBB, room temperature, 3 h, gamma counting; average ± SD of experiments on three separate days
# Procedure: Competition binding assays were performed as previously described, [60] to measure the relative binding affinities of engineered knottin peptides and echistatin. Briefly, 2×10^5 U87MG or K562 cells were incubated with 0.06 nM ^125I-labeled echistatin and varying concentrations of peptides in IBB at room temperature for 3 h. The cell-bound radioactivity remaining after washing was determined by gamma-counting. Half-maximal inhibitory concentration (IC50) values were determined by non-linear regression analysis using KaleidaGraph software (Synergy Software), and are presented as the average of experiments performed on three separate days.
# [2] = In vivo metabolic stability in U87MG xenograft mice (radio-HPLC); design: species or system mouse
# Procedure: (§1) Aliquots containing up to 400 µCi of ^64Cu-DOTA-knottin 3-4A were incubated in 50% mouse serum for up to 24 h. At various time points, samples were mixed with an equal volume of 99.9% water/0.1% TFA, further acidified with ∼1% (v/v) TFA, and centrifuged to remove precipitants. Soluble fractions were filtered with a 0.2 µm microcentrifuge filter (Corning Costar Spin-X filter) and analyzed by reversed-phase radio-HPLC using a Vydac C18 column. For metabolic stability analysis, anesthetized nude mice bearing U87MG tumor xenografts were injected with 200–400 µCi of ^64Cu-DOTA-knottin 3-4A via the tail vein, and were euthanized at 1 h post injection. Tumor, kidney, and liver tissues were homogenized with a mortar/pestle in 1 ml DMF. The lysates were acidified, centrifuged, and filtered using a 0.2 µm Costar Spin-X microcentrifuge filter to isolate soluble metabolites. Filtrates were injected onto a Vydac C18 column and analyzed by reversed-phase HPLC. Fractions were collected every 1 min and analyzed by gamma counting to determine the counts per minute (cpm). Urine samples were collected 1 h post injection and were also analyzed by radio-HPLC. The intact radiotracer elutes at approximately 15 min, and the major hydrophilic metabolites and free copper elute with the column dead volume.
# [3] = test system: U87MG tumor xenografts; experiment: MicroPET imaging in U87MG xenograft mice; assay type: in vivo, mouse
# Procedure: (§2) Animal procedures were carried out according to a protocol approved by Stanford University Administrative Panels on Laboratory Animal Care (APLAC Protocol 11580). U87MG glioblastoma cells were maintained at 37°C/5% CO2 in Dulbecco's Modified Eagle Medium, 10% heat-inactivated fetal bovine serum, and penicillin-streptomycin (all from Invitrogen). Female athymic nude mice (nu/nu), obtained at 4–6 weeks of age (Charles River Laboratories, Inc., Wilmington, MA), were injected subcutaneously in the right or left shoulder with ∼10^7 U87MG cells suspended in 100 µL of PBS. Mice were used for in vivo imaging studies when their tumors reached approximately 10 millimeters in diameter.
# U87MG tumor-bearing mice (n = 3 or more for each probe) were injected with ∼100 µCi (∼0.5 nmol) of probe via the tail vein and imaged with a microPET R4 rodent model scanner (Siemens Medical, Knoxville, TN) using 5 min static scans. Images were reconstructed by a two-dimensional ordered expectation maximum subset algorithm and calibrated as previously described. ROIs were drawn over the tumor on decay-corrected whole body images using ASIPro VM software (Siemens Medical). ROIs were converted to counts/g/min, and %ID/g values were determined assuming a tissue density of 1 g/mL. No attenuation correction was performed. For the blocking experiments, mice were co-injected with 330 µg (∼0.5 µmol) of unlabeled c(RGDyK), a pentapeptide that binds to αvβ3 and αvβ5 integrins, [62] at a similar receptor binding site as the engineered knottin peptides.
# [4] = Serum stability in mouse serum (radio-HPLC); assay type: in vitro ADME; details: 50% mouse serum, 37°C, reversed-phase radio-HPLC (Vydac C18), area under the entire peak
# Procedure: as §1
# [5] = test system: MDA-MB-435 melanoma xenograft; experiment: Tumor uptake in MDA-MB-435 melanoma xenograft model; assay type: in vivo; details: lower αvβ3 integrin levels, data not shown
# [6] = Biodistribution in U87MG xenograft mice (gamma counting); assay type: in vivo, mouse; details: female, athymic nude (nu/nu), mouse, iv, total radioactivity; for tissue to tissue ratio at 4 h: U87MG xenograft mice
# Procedure: as §2
# (§3) Anesthetized nude mice bearing U87MG tumor xenografts were injected with ∼50–100 µCi (∼0.25–0.5 nmol) of ^64Cu-DOTA-knottin 3-4A via the tail vein, and were euthanized at 1, 4, and 24 h post injection. Blood, bone, brain, heart, kidney, liver, lung, muscle, pancreas, skin, spleen, and tumor tissue were removed and weighed, and their radioactivity levels (counts per minute) were measured by gamma counting. The radioactivity uptake in the tumor and normal tissue was reported as the percent injected dose per gram (%ID/g) of tissue and represent the mean and standard deviation of experiments performed on three mice. For each mouse, the activity of tissue samples was calibrated against a pre-measured aliquot of the radiotracer and normalized to the whole bodyweight and to the residual radioactivity present in the tail. To test integrin-targeting specificity, U87MG tumor-bearing mice (n = 3) were co-injected with ^64Cu-DOTA-knottin 3-4A and 330 µg (∼0.5 µmol) of unlabeled c(RGDyK), and biodistribution of the radiolabeled peptide was determined 1 h after injection.
# [7] = test system: U87MG tumor xenografts; experiment: as above; assay type: in vivo, mouse
# Procedure: as §2, §3
# [8] = test system: integrin receptors expressed on U87MG glioblastoma cells; details: read-out: IC50, competition binding of 125I-echistatin to U87MG cells; cited from earlier work
# Procedure: The engineered knottin peptides were tested for their ability to compete with ^125I-echistatin for binding to integrin receptors expressed on U87MG glioblastoma cells, which express ∼10^5 αvβ3 integrin receptors per cell. Echistatin, a polypeptide found in snake venom, binds to multiple integrin receptors with high affinity, [27] and was used as a positive control. […] Both engineered loops were capable of binding to integrins with high affinity, as confirmed by measurements performed with knottins containing scrambled RDG control loops. […] In one example, c(RGDyK) dimers and higher order oligomers have been created by chemical conjugation through addition of a glutamate branching residue.
# [9] = U87MG xenograft mice, summary of imaging and biodistribution
compound,measurement,setting,value
"CSCC[C@@H]1NC(=O)[C@H](CC(=O)O)NC(=O)CNC(=O)[C@H](CCCNC(=N)N)NC(=O)[C@H](C)NC(=O)[C@H](CCC(=O)O)NC(=O)[C@H](CCCNC(=N)N)NC(=O)[C@@H]2CSSC[C@@H]3NC(=O)[C@H](CO)NC(=O)[C@H]([C@@H](C)O)NC(=O)[C@@H]4CCCN4C(=O)[C@H](C)NC(=O)[C@H](Cc4c[nH]c5ccccc45)NC(=O)[C@H](CC(=O)O)NC(=O)CNC(=O)[C@H](CCCNC(=N)N)NC(=O)CNC(=O)[C@H](CCC(N)=O)NC(=O)[C@@H]4CCCN4C(=O)[C@@H](NC(=O)CNC(=O)CN4CCN(CC(=O)O)CCN(CC(=O)O)CCN(CC(=O)O)CC4)CSSC[C@H](NC(=O)CNC(=O)[C@H](C)NC(=O)[C@H](CC(C)C)NC(=O)[C@H](CSSC[C@@H](C(=O)NCC(N)=O)NC(=O)[C@H]([C@@H](C)O)NC(=O)[C@H](CCCNC(=N)N)NC(=O)[C@@H]4CCCN4C1=O)NC(=O)[C@H](CC(=O)O)NC(=O)[C@H](CO)NC(=O)[C@H](CC(=O)O)NC(=O)[C@H](CCC(N)=O)NC(=O)[C@H](CO)NC3=O)C(=O)N[C@@H](C(C)C)C(=O)N2 [DOTA-3-4A] ({DOTA}-GCPQGRGDWAPTSCSQDSDCLAGCVCREARGDMPRTCG-NH2; disulfide 2-24, 14-26, 20-37)",IC50,[1],8 ± 1 nM
"CSCC[C@@H]1NC(=O)[C@H](CC(=O)O)NC(=O)CNC(=O)[C@H](CCCNC(=N)N)NC(=O)[C@H](C)NC(=O)[C@H](CCC(=O)O)NC(=O)[C@H](CCCNC(=N)N)NC(=O)[C@@H]2CSSC[C@@H]3NC(=O)[C@H](CO)NC(=O)[C@H]([C@@H](C)O)NC(=O)[C@@H]4CCCN4C(=O)[C@H](C)NC(=O)[C@H](Cc4c[nH]c5ccccc45)NC(=O)[C@H](CC(=O)O)NC(=O)CNC(=O)[C@H](CCCNC(=N)N)NC(=O)CNC(=O)[C@H](CCC(N)=O)NC(=O)[C@@H]4CCCN4C(=O)[C@@H](NC(=O)CNC(=O)CN4CCN(CC(=O)O)CCN(CC(=O)O)CCN(CC(=O)O)CC4)CSSC[C@H](NC(=O)CNC(=O)[C@H](C)NC(=O)[C@H](CC(C)C)NC(=O)[C@H](CSSC[C@@H](C(=O)NCC(N)=O)NC(=O)[C@H]([C@@H](C)O)NC(=O)[C@H](CCCNC(=N)N)NC(=O)[C@@H]4CCCN4C1=O)NC(=O)[C@H](CC(=O)O)NC(=O)[C@H](CO)NC(=O)[C@H](CC(=O)O)NC(=O)[C@H](CCC(N)=O)NC(=O)[C@H](CO)NC3=O)C(=O)N[C@@H](C(C)C)C(=O)N2 [^64Cu-DOTA-knottin 3-4A, metal not drawn] ({DOTA}-GCPQGRGDWAPTSCSQDSDCLAGCVCREARGDMPRTCG-NH2; disulfide 2-24, 14-26, 20-37)","intact radiotracer recoverable from liver, 1 h post injection","[2]; U87MG xenograft mice, tail vein 200–400 µCi, liver homogenate in DMF, reversed-phase HPLC and gamma counting",< 40%
same,"intact radiotracer recoverable from tumor, 1 h post injection","[2]; U87MG xenograft mice, tail vein 200–400 µCi, tumor homogenate in DMF, reversed-phase HPLC and gamma counting",< 40%
same,"metabolic stability, kidneys, 1 h post injection","[2]; kidney homogenate, radio-HPLC, result in words",a hydrophilic metabolite (or free copper) is responsible for the majority of the radioactive signal
same,"metabolic stability, urine, 1 h post injection","[2]; urine samples, radio-HPLC, result in words",intact knottin radiotracer is excreted through the bladder
same,"kidney uptake, microPET, 1 h post injection",[3]; U87MG xenograft mice,10-12 %ID/g
same,"kidney uptake, microPET, 24 h post injection",[3]; U87MG xenograft mice,3–4 %ID/g
same,"liver uptake, microPET, throughout the imaging study","[3]; U87MG xenograft mice, 1-24 h",~2 %ID/g
same,"kidney uptake, 1−4 h post-injection (summary in discussion)",[3]; [9],8–12 %ID/g
same,"kidney uptake, 24 h (summary in discussion)",[3]; [9],2–4 %ID/g
same,liver uptake (summary in discussion),[3]; [9],1–2 %ID/g
same,"tumor uptake, microPET, 1 h post injection","[3]; U87MG xenograft nude mice, tail vein ∼100 µCi, n = 3, mean ± SD",3.51±0.83 %ID/g
same,"tumor uptake, microPET, 24 h post injection","[3]; U87MG xenograft nude mice, tail vein, n = 3, mean ± SD",1.97±0.24 %ID/g
same,"tumor uptake, microPET, 1 h post injection, blocked","[3]; co-injection of 1000-fold molar excess of unlabeled c(RGDyK) (330 µg), p<0.05",0.53± 0.03 %ID/g
same,remaining at 4 h,"[4]; 4 h, read-out: intact probe remaining in serum, 4 h",55%
same,"intact probe remaining in serum, 24 h",[4]; 24 h,~30%
same,remaining at 24 h,"[4]; 24 h, read-out: intact probe remaining in serum, 24 h",30%
same,"tumor uptake, 1 h post injection",[5],0.82±0.05 %ID/g
same,tumor washout rate,"[6]; calculated from 1 h and 24 h tumor radioactivity, read-out: radiotracer washout rate from tumor, biodistribution",0.06 %ID/g
same,tissue to tissue ratio at 4 h,"[6]; tumor / muscle, read-out: tumor-to-muscle (T/M) ratio, 4 h post injection",31 ± 7
same,tissue to tissue ratio at 4 h,"[6]; tumor / whole blood, read-out: tumor-to-blood (T/B) ratio, 4 h post injection",27 ± 3
same,"muscle radioactivity, biodistribution",[7]; U87MG xenograft mice,< 0.4 %ID/g
same,"heart radioactivity, biodistribution, throughout the study","[7]; U87MG xenograft mice, 1-24 h",~0.3 %ID/g
same,"liver radioactivity, biodistribution, 1 h post injection","[7]; U87MG xenograft mice, n = 3",~1 %ID/g
same,"liver radioactivity, biodistribution, 24 h post injection","[7]; U87MG xenograft mice, n = 3",~2 %ID/g
same,"lung radioactivity, biodistribution, 1 h post injection","[7]; U87MG xenograft mice, n = 3",~1 %ID/g
same,"lung radioactivity, biodistribution, 24 h post injection","[7]; U87MG xenograft mice, n = 3",~0.6 %ID/g
same,"kidney radioactivity, biodistribution, 24 h post injection","[7]; U87MG xenograft mice, n = 3, mean ± SD",2.67±0.22 %ID/g
same,"tumor uptake, biodistribution, 24 h post injection","[7]; U87MG xenograft nude mice, gamma counting, n = 3, mean ± SD",2.56±0.40 %ID/g
same,"tumor uptake, biodistribution, 1 h post injection","[7]; U87MG xenograft nude mice, tail vein ∼50–100 µCi, gamma counting, n = 3, mean ± SD",3.92±0.70 %ID/g
same,"tumor uptake, biodistribution, 1 h post injection, blocked","[7]; co-injection of 1000-fold molar excess of unlabeled c(RGDyK) (330 µg), n = 3, p<0.05",0.66±0.17 %ID/g
"ECESGPCCRNCKFLKEGTICKRARGDDMDDYCNGKTCDCPRNPHKGPAT (disulfide 2-11, 7-32, 8-37, 20-39 (inferred)) [Echistatin, reference compound]",IC50,[1],4.9 ± 0.1 nM
c(RGDyK),IC50,[8],203 ± 32 nM

# Source: article PMC3041754, “Functional Mutation of Multiple Solvent-Exposed Loops in the Ecballium elaterium Trypsin Inhibitor-II Cystine Knot Miniprotein” (PLoS ONE, 2011)
